Laboratory results: US6353153B1, “Enhanced transport with a plastid membrane transport protein” (priority 1996, dated 2002)

Assays:
[1] = system: β-lactamase transport in E. coli MM52 (secAts); experiment: Sodium azide sensitivity of β-lactamase transport in MM52; assay type: cell-based, Escherichia coli; conditions: MM52 strain, 30° C., two hours, sodium azide 0 to 1 mM
Description: Overnight cultures of MM52-Bce44B, MM52-Oee1-Dhfr, MC4100-Bce44B, and MC4100-Oee1-Dhfr cells were used as inocula for parallel experiments. These freshly inoculated cultures were grown at 30° C. for two hours in media containing increasing concentrations of sodium azide (from 0 to 1 MM). Cells were then harvested, and normalized according to cell number before analysis. […] Azide sensitivity characteristics were firther assessed by growing both wild-type and mutant bacterial lines in the media containing 0.5 mM sodium azide for 0, 1 and 2 hr.
Sensitivity of the bacterial strains to sodium azide was determined in the same manner as outlined in Oliver el al. (1990) Proc. Natl. Acad. Sci. USA 87:8227. Changes to β-lactamase transport activity in response to sodium azide was used as a monitor of differences in the protein translocation activity of Bce44B- versus Oee1-Ohfr-expressing cells. […]
The pBCE44B and pOEEIDHFR plasmids were introduced into E. coli strain MM52 (Oliver and Beckwith, (1981) Cell 25:765) by electroporation using the BioRad Gene Pulser and the supplied protocols for E. coli strains. […] The plasmid-harboring MM52 strains were grown in LB-ampicillin broth and analyzed in the same manner as the JM109(DE3) strains described above.

[2] = system: β-lactamase translocation in E. coli JM109(DE3); experiment: Immunoblot of transported and processed β-lactamase; assay type: cell-based, Escherichia coli; conditions: per cell basis, four hours, ampicillin 50 μg to 3 mg/ml
Description: Changes to β-lactamase transport were monitored by two different approaches: 1) the ability to form colonies on solid LB-agar plates containing increasing concentrations of ampicillin (50 μg/ml to 3.0 mg/ml); and 2) the level of transported and processed β-lactamase detected by immunoblotting total protein samples of cells grown in LB-broth containing increasing ampicillin concentrations.
The same cells were also used to determine the level of transported β-lactamase grown in media containing increasing concentrations of ampicillin. Cultures were diluted 5× into LB broth with increasing amounts of ampicillin (50 μg/ml to 3.0 mg/ml) and allowed to grow up to 4 hours. The level of transported β-lactamase was monitored by immunoblotting analysis of samples taken at time intervals of 0 hr, 0.5 hr, 1.0 hr, 1.5 hr, 2.0 hr, 3 hr and 4 hr. Immunoblot analysis was performed on total cellular protein samples with anti-p-lactamase antibodies as outlined above.

Lycopersicon esculentum = experiment: Seed size of transgenic plants carrying the CaMV-Bce44B-NOS transgene; assay type: in vivo; conditions: primary generation of transgenic plants
Text: (§1) Transgenic plants (Brassica napus, Arabidopsis thaliana and Lycopersicon esculentum) with altered plastid protein transport capacity were produced by introducing a transgene construct consisting of DNA encoding the Bce44B protein and a 5′ untranslated region immediately upstream of the Bce44B coding sequence. Expression of the construct was obtained by linking the cauliflower mosaic virus 35S promoter (Odell, J. T. et al. (1985) Nature 313:810) upstream. Transcriptional termination was facilitated by the gene encoding nopaline synthase (NOS) found in Agrobacterium Ti plasmids or their derivatives such as pBI101 (Clontech). Construction of the 35S CAMV-Bce44B-NOS transgene construct is diagrammed in FIG. 6.
(§2) Agrobacterium strains containing the pEND4K-CAMV-Bce44B-NOS plasmid were used to transform plants following a leaf disc transformation protocol, such as the one described by Horsch et al. (1985) Science 227:1229), or by in planta methods which can include the seed transformation protocol reported by Feldmann and Marks (1987) Mol. Gen. Genet. […]

Brassica napus = experiment: as above; assay type: in vivo; conditions: primary generation of transgenic plants
Text: as §1, §2

B1: Bce44B: plastid transport protein, Brassica napus 44 kDa chloroplast envelope protein, member of Com44/Cim44, encoded by SEQ ID NO:1 (protein)
chain: MQTAMKTMMNQMNTQNSQFNNPGFPTGAGAGAGSPFPFPFPPQTSPTTSPFQPQSQSSGATVDLTATKVDRPPVSKPQPTPIPPTKSIEVYKPSVVVEENKAMKEEKNYAFEDVSPEETTKESPFSNYEEVSETSAPKETRLFDDVLQNGAAPANGATASDVFQSLGAGKGWAGGSVEVLEKMIEYPTFQKMLYPHLPEEMRNPESFKWVRKNPQYRQQLQDMLNNMSESGEWDKRMTETLKNFDPNSPEVKQGFDQLGLTPEEVISKIMENPDVSMAFQNPRVEAALMDCSENPMNIMKYQNDKEVMDVFNKISQLFPGLTG
[1]
  sodium azide concentration at which precursor form of β-lactamase appears: 0.25 to 0.375 mM
[2]
  level of processed β-lactamase compared with Oee1-Dhfr-expressing cells: higher
Lycopersicon esculentum
  seed size relative to wildtype counterparts or pEND4K-only control plants: approximately twice
Brassica napus
  seed size relative to wildtype counterparts or pEND4K-only control plants: approximately twice
